{"source": "patent US11708423B2", "about": "“Chimeric engulfment receptor molecules and methods of use” (CERO THERAPEUTICS, INC., priority 2017, dated 2023)", "molecules": {"B1": {"name": "CER126: Tim4 binding and transmembrane domains, TLR2 primary and TRAF2 secondary signaling domains; SEQ ID NO:174 (protein)", "chain": "MSKGLLLLWLVTELWWLYLTPAASEDTIIGFLGQPVTLPCHYLSWSQSRNSMCWGKGSCPNSKCNAELLRTDGTRIISRKSTKYTLLGKVQFGEVSLTISNTNRGDSGVYCCRIEVPGWFNDVKKNVRLELRRATTTKKPTTTTRPTTTPYVTTTTPELLPTTVMTTSVLPTTTPPQTLATTAFSTAVTTCPSTTPGSFSQETTKGSAFTTESETLPASNHSQRSMMTISTDIAVLRPTGSNPGILPSTSQLTTQKTTLTTSESLQKTTKSHQINSRQTILIIACCVGFVLMVLLFLAFLHRFHGLWYMKMMWAWLQAKRKPRKAPSRNICYDAFVSYSERDAYWVENLMVQELENFNPPFKLCLHKRDFIPGKWIIDNIIDSIEKSHKTVFVLSENFVKSEWCKYELDFSHFRLFDENNDAAILILLEPIEKKAIPQRFCKLRKIMNTKTYLEWPMDEAQREGFWVNLRAAIKSMAAASVTPPGSLELLQPGFSKTLLGTKLEAKYLCSACRNVLRRPFQAQCGHRYCSFCLASILSSGPQNCAACVHEGIYEEGISILESSSAFPDNAARREVESLPAVCPSDGCTWKGTLKEYESCHEGRCPLMLTECPACKGLVRLGEKERHLEHECPERSLSCRHCRAPCCGADVKAHHEVCPKFPLTCDGCGKKKIPREKFQDHVKTCGKCRVPCRFHAIGCLETVEGEKQQEHEVQWLREHLAMLLSSVLEAKPLLGDQSHAGSELLQRCESLEKKTATFENIVCVLNREVERVAMTAEAC", "modifications": "CER126 protein"}}, "format_in_all_cases": "cell-based", "key": {"[1]": {"system": "HCC159 lung adenocarcinoma cells", "test": "MTT viability of HCC159 cells co-cultured with CER T cells and Osimeritinib", "details": "Osimeritinib 0.1, 1, 5 nM; E:T 1:1, 2:1, 5:1; 48 hours", "protocol": "HCC159 lung adenocarcinoma cells harboring an EGFR mutation were co-cultured with CER123- or CER126-expressing CD4+ T cells with increasing concentrations of Osimeritinib (0.1 nM, 1 nM, or 5 nM). Mock transduced (vector only) T cells were used as control. After 48 hours of co-culture at effector: target cell ratios at 1:1, 2:1 or 5:1 in the presence of drug, T cells were washed away, and the number of viable HCC159 cells was quantified using a calorimetric MTT assay. Cell viability experiments were performed in triplicates and presented as % of control with (FIG. 48A)."}, "[2]": {"system": "A549 ALK+ cells", "test": "MTT viability and bright field microscopy of A549 ALK+ cells with CER T cells and ALK inhibitor", "details": "Alectinib 3.7 μM, 48 hours, vs mock-transduced T cells", "description": "An […] translocation was introduced into A549 cells. […] CER104 has a polypeptide sequence set forth in SEQ ID NO:133 and comprises a Tim4 binding domain, Tim4 transmembrane domain, and an engulfment signaling domain comprising a primary engulfment signaling domain comprising a TLR8 signaling domain and a secondary engulfment signaling domain comprising a DAP12 signaling domain. CER122 has a polypeptide sequence set forth in SEQ ID NO:149 and comprises a Tim4 binding domain, Tim4 transmembrane domain, and an engulfment signaling domain comprising a primary engulfment signaling domain comprising a TLR2 signaling domain and a secondary engulfment signaling domain comprising a DAP12 signaling domain. Effector:target (E:T) cell ratio for co-culture was 2:1 or 5:1. […] Cell viability experiments were performed in triplicates and presented as % of control. Best-fit curves were generated from raw data using linear regression models.\nCER21−, CER108−, CER104−, and CER129-transduced CD4+ T cells were tested for their ability to kill A549 ALK+ cells in the presence of ALK inhibitor. CD4+ T cells were transduced with a lentiviral vector comprising a CER21, CER108, CER104, CER129, CER27, CER120, CER122, CER123, CER124, or CER126 nucleic acid. […] After 48 hours of co-culture, T cells were washed away and the number of viable A549 ALK+ cells was quantified using a calorimetric MTT assay (FIGS. 67A-B). Cell viability experiments were performed in triplicates and presented as % of control. Bright field microscopy images were also obtained from A549 ALK+co-culture experiments. […] Arrow indicates cluster of dead A549 ALK+ cells surrounded by phagocytic CER104+ T cells. […]"}, "[3]": {"system": "ALK+A549 cells", "test": "LDH cytotoxicity assay, A549 ALK+ cells, 18 hours co-culture", "protocol": "An ELM4-ALK translocation was introduced into A549 cells. […] Assays were performed with purified tEGFR^+ (transduction marker), CER-expressing T cells 7 days after activation using CD3 & CD28 microbeads at effector: target cell ratios of 2:1 or 5:1. Mock T cells were transduced with vector alone and used as control. After 18 hours of co-culture, bulk supernatants were evaluated using a LDH cytoxicity assay indicating cell killing (FIGS. 65A-B)."}, "[4]": {"system": "H1975 lung adenocarcinoma cells", "test": "LDH assay, H1975 cells, 48 hours co-culture with 1 μM Osimeritinib", "details": "E:T 1:1, 48 hours, CD4+ T cells", "summary_of_the_method": "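H1975 EGFR-mutant cells were co-cultured 48 h with CER-expressing or mock-transduced CD4+ T cells at 1:1 effector:target, plus 1 μM osimertinib. After T cells were washed away, viable H1975 cells were quantified by colorimetric LDH assay in triplicate, expressed as % of control.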"}, "[5]": {"system": "H1975 lung adenocarcinoma cells", "test": "MTT viability of H1975 cells co-cultured with CER T cells and Osimeritinib", "description": "H1975 lung adenocarcinoma cells harboring an EGFR mutation were co-cultured with CER123- or CER126-modified or Mock-transduced (vector only) CD4+ T cells with increasing concentrations of Osimeritinib. CER123 has a polypeptide sequence as set forth in SEQ ID NO:150 and comprises a Tim4 binding domain, Tim4 transmembrane domain, and an engulfment signaling domain comprising a primary engulfment signaling domain comprising a TLR2 signaling domain and a secondary engulfment signaling domain comprising a TRAF6 signaling domain. CER126 has a polypeptide sequence as set forth in SEQ ID NO:174 and comprises a Tim4 binding domain, Tim4 transmembrane domain, and an engulfment signaling domain comprising a primary engulfment signaling domain comprising a TLR2 signaling domain and a secondary engulfment signaling domain comprising a TRAF2 signaling domain. CD4 T cells were transduced with a lentiviral vector comprising CER123 or CER126 nucleic acid and truncated EGFR (transduction marker) nucleic acid. Assays were performed using CER modified T cells purified by FACS using an EGFR specific antibody 7 days after activation using CD3 & CD28 microbeads. CER modified T cells and H1975 cells were co-cultured at effector:target cell ratio (E:T) of 1:1, 2:1, or 5:1. After 48 hours of co-culture in the presence of Osimeritinib (0, 250 nM, 500 nM, or 1000 nM), T cells were washed away, and the number of viable H1975 cells were quantified using a calorimetric MTT assay. Cell viability experiments were performed in triplicate and presented as % of control (FIG. 45A)."}}, "note": "“Also recorded” adds a separate entry of the source."}
{"molecule": "B1", "values": [{"measurement": "growth/viability of HCC159 cells (MTT)", "setting": "[1]", "result": "dose-dependent target cell killing responses; also recorded: synergistically suppressed"}, {"measurement": "bright field microscopy of A549 ALK+ co-culture", "setting": "[2]", "result": "cluster of dead A549 ALK+ cells surrounded by phagocytic CER126^+ T cells"}, {"measurement": "micrograph images of A549 co-culture", "setting": "[3]; Crizotinib 3700 nM", "result": "near complete loss of Crizotinib-treated A549 cells"}, {"measurement": "cell killing of A549 ALK+ cells (LDH)", "setting": "[3]; Crizotinib or Alectinib 0, 2500, 3700 nM, E:T 2:1 or 5:1, 18 hours", "result": "dose-dependent inducible cytokine secretion and cell killing responses"}, {"measurement": "killing of H1975 cells (LDH)", "setting": "[4]", "result": "synergistic killing of H1975 lung adenocarcinoma cells upon EGFR inhibition"}, {"measurement": "bright field images of H1975 co-culture", "setting": "[5]; Osimeritinib 500 nM, vs control T cells (vector alone)", "result": "loss of H1975 cells"}, {"measurement": "growth/viability of H1975 cells (MTT)", "setting": "[5]; Osimeritinib 250, 500, 1000 nM, CD4+ T cells, E:T 1:1, 2:1, 5:1, 48 hours", "result": "synergistically suppressed"}]}
